Measured values reported in patent publication US20020058323A1, “Monkey urotensin II” (priority 2000, published 2002).

Biological target: T1, Macaca fascicularis Urotensin II receptor (Macaca mulatta, UniProt Q8HYC3)
T1 construct: expressed in transfected cells
T1 sequence (Q8HYC3 1-389): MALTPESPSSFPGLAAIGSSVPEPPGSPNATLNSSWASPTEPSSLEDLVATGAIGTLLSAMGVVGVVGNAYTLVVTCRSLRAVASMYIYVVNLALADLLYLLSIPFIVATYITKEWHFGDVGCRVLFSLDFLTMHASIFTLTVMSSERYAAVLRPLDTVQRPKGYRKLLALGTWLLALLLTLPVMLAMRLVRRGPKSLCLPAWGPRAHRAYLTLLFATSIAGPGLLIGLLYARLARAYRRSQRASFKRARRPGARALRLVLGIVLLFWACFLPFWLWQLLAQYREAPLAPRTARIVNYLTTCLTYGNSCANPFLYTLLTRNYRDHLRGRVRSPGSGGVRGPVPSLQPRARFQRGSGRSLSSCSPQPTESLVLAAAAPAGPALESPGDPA
Assay: Radioligand binding with Scatchard plot analysis on a stable HEK 293 cell line transfected with the Urotensin II receptor
Conditions: radiolabeled ligand, single set of binding sites, transfected HEK 293 cells
Source text: 1. A stable cell line was developed from HEK 293 cells transfected with mammalian pCDN vector of the Macaca fascicularis Urotensin II receptor.

B1: Macaca fascicularis Urotensin II: Macaca fascicularis Urotensin II polypeptide of the invention (SEQ ID NO:2, 125 amino acids), ligand of a G-protein coupled receptor (protein)
chain: MYKLASCCLLFIGFLNPLFSLPLLDSGEVSLQLSAPHEDAPLTSEELERASLLQILPEMLLGAERGDSLRKADSSTNIFNPRGNLRKFQDFSGQDPDILLSHLLARIRKPYKKRETPDCFWKYCV
modifications: MACACA FASCICULARIS
Kd: 0.214 ± 0.065 nM
